Sequences and labels used below:
T1: endogenous human APOL1 (wild-type immortalized podocytes; also JHH-1 cells, kidney and liver tissue) (human, UniProt O14791 28-398)
T1 construct: whole, on cells; Cell or tissue and permeabilization are told under assay; also called podocyte APOL1; endogenous APOL1
T1 sequence (looked up): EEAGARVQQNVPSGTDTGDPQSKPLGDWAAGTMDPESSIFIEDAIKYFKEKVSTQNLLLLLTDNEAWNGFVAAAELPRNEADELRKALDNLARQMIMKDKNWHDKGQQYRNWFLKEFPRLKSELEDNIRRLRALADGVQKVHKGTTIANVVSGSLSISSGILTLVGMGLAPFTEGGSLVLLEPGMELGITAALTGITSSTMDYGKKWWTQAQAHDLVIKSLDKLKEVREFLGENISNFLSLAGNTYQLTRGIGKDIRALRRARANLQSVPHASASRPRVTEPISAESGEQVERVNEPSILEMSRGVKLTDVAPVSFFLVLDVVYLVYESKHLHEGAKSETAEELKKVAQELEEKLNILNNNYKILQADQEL

T2: untagged APOL1-G0, KIK variant, transiently expressed (COS cells) (human, UniProt O14791 29-398)
T2 construct: Origene SC109941 clone with E150K, M228I, R255K
T2 chain: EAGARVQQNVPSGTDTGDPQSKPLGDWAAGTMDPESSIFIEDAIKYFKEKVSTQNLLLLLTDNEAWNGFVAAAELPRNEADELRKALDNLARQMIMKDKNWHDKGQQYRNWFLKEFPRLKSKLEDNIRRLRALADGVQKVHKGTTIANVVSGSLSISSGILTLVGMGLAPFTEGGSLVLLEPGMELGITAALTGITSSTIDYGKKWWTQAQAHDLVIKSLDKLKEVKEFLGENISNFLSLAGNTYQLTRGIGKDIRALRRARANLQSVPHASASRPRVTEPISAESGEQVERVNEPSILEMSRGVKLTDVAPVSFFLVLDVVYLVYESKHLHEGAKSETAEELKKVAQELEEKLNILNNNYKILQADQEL

T3: APOL1 very C-terminal peptide aa 376-398 (human)
T3 peptide: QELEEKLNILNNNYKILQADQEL

B1: rabbit monoclonal antibody 5.17D12 (antibody, V domains shown)
VH: QSLEESGGDLVKPGASLTLTCTASGFSFSSNYYMCWVRQAPGKGLEWIACVYVGSGGSTYYASWAKGRFTFSKTSSTTWTLQMTSLTAADTATYFCARDLSYAGDLWGPGTLVTVSS
VL: DPVMTQTPASVSEPVGGTVTINCQASESISSYLAWYQQKPGQPPKLLIYGASNLASGVPSRFKGSGSGTEYTLTISDLECDDAATYYCQSAYYSNSGGHAFGGGTEVVVKG
notes: Rabbit mAb (Method #5), recombinant; also called rabmab 5.17D12
B2: antibody 4.12E5 (antibody, V domains shown)
VH: EVQLQQSGPELVKTGASVKISCKASGYSFTGYFMHWVKQSHGKSLEWIGYISCYNGASVYNQRFKGKATFTIDTSSSTAYMQFNSLTSEDSAVYYCARDVLRYPRYAVDYWGQGTSVTVSS
VL: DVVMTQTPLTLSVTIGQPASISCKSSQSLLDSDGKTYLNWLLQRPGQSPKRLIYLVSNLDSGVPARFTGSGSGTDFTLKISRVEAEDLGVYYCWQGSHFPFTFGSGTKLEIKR
notes: Mouse mAb, cloned as murine IgG2a LALAPG
B3: antibody 3.1C1 (antibody, V domains shown)
VH: QVQLQQSGPELVKPGASVRISCKASGYTFTNYFIHWVKQRPGQGLEWIGWINPGNLNTKYTEEFKGKATLTADKSSSTAYIQLNSLTSEDSAVYFCVNGNPFVYWGQGTLVTVSA
VL: DIVMTQSPSSLTVIAGEKVTLNCKSSQSLLNSGNQKKYLTWLQQKPGQPPKLLIYWTSTRDSGVPDRFTGSGSGTDFTLTISSVQAEDLAVYYCQNDYSYPLTFGAGTKLEIKR
notes: Mouse mAb, cloned as murine IgG2a LALAPG; not written separately; also called SRA-ID mAb 3.1C1
B4: antibody 3.6E10 (antibody, V domains shown)
VH: QVQLQQSGAELAKPGASVKMSCKASGYIFTSYYLHWVKQRPGQGLEWIGYINPNTGYTEYTQNFKDRATLTADKSSSTAYMQLTSLTSEDSAVYFCVNGNPFVYWGQGTLVTVSA
VL: B3 VL with I14T, A15T, L21M, N22T, K24R, K37N, L42F, D61Y
notes: as for B2
B5: antibody 4.17A5 (antibody, V domains shown)
VH: QVQLQQSGPELLKPGASVKISCKGSGYAFSNSWINWVKLRPGQGLEWIGRIYPGDGDTKYNGKFKGKATLTADKSSSTAHMQLRSLTSVDSAVYFCARFPFGKYEGPGAMDYWGQGTSVTVSS
VL: DIQMTQTTSSLSASLGDRVTISCRASQDISSYLNWYQQKPDGTIKLLIYYTSRLHSGVPSRFSGSGSGTDFSLTISNLEQEDIATYFCQQGNTLPYTFGGGTKLEIKR
notes: Mouse mAb (Method #4), cloned as murine IgG2a LALAPG; also called mAb 4.17A5
B6: antibody 3.6D12 (antibody, V domains shown)
VH: EVMLVESGGGLVRPGGSLKLSCTASGFTFSRCAMSWVRQTPEKRLEWVSAISRDSTYTYYSDSVKGRFTVSRDNAKNTLYLQMSSLRSEDTAMYYCARQIDDYYVDALDYWGQGTSVTVSS
VL: DVQITQSPSYLAASPGETITINCRASKIISKYLAWYQEKPGKTIKLLIYSGFTLQSGIPSRFSGSGSGTDFTLTISSLEPEDFAMYYCQQHNEYPLTFGAGTKLEIKR
notes: Mouse mAb (Method #3), cloned as murine IgG2a LALAPG; Early screens used hybridoma-purified antibody; also called mAb 3.6D12
B7: antibody 3.7D6 (antibody, V domains shown)
VH: QIQLVQSGPDLKKPGETVKISCRTSGYAFTNYGVNWVKQAPGKGLKWMGWINTNTGQTTYAEEFRGRFAISLETSASTAFLTISNLKNEDSATYFCARLIYDGDYISSDFWGQGTTLTVSS
VL: DIQMTQSPDSLSASVGETVTITCGASENIYGALNWYQRKQGKSPQLLIYGATNLADGMSSRFSGSRSGRQYSLKISSLHPDDVATYYCQNALSMPYTFGGGTKLEIKR
notes: Mouse mAb, cloned as murine IgG2a LALAPG; those versions are not written separately; also called PFD antibody 3.7D6

The source of these data is patent US20230071609A1 (Genentech, published 2023).

Where a chain is given by its changes, count along the chain named.

The target of one test is T1, endogenous human APOL1 (wild-type …). The test can be described thus: summary of the Examples: podocyte flow cytometry. On the procedure:
Cells were harvested with 5 mM EDTA in PBS, washed once with growth media and twice with PBS. Approximately 0.5×10⁶/m1 of cells resuspended in PBS were incubated with anti-APOL1 antibodies for 1 h on ice. Following two PBS washes, 2 μg/ml of Alexa488 anti-mouse or anti-rabbit (Invitrogen A11029 and A21206, respectively) was used for 1 h on ice for detection. Cells were washed twice in PBS and resuspended in PBS with 1 μg/ml propidium iodide. Signals were read in a FACSCalibur3 (Becton Dickinson), with the exception of FIG. 8A and FIG. 14, which used a FACSCelesta, and data was analyzed using FlowJo v8.4.5. Mean fluorescence intensities were plotted in PRISM v7 after subtraction of secondary antibody alone background. For low pH experiments, cells were incubated with the antibodies in the presence of PBS pH 7.0 or PBS pH 5.5 for an hour on ice and detected with secondary antibodies at neutral pH.
(In flow cytometry, cells or beads pass a laser one at a time.)
B1: the binding result was “binds”.

Turning to B2, the binding result is “binds”.

With B3, the binding result is reported as “binds”. Consider B4, for which the binding result is “binds”.

The target in another test is T2, untagged APOL1-G0, KIK variant, …. Nature of the test: immunofluorescence on transfected COS cells, 1 µg/ml; grade.
For B5, the binding result was “binds”.

Regarding B1, the binding result is “binds”. Still for that read-out and setting: the entry for B2 is “binds”; for B3 it is “binds”.

In the case of B4, the binding result was “binds”. On the same count and under the same terms, under B6 stands “binds”. As for B7, the binding result was “binds”.

The next test deals with T3, APOL1 very C-terminal peptide aa 376-398. Nature of the test: overlapping ~20-mer peptides (SPR, western blot); antibody named in paragraph 192. The method, then: Following three TBST washes, anti-mouse (GE Healthcare NA931V, 1:3000) or anti-rabbit HRP (Jackson 711-036-152, 1:8000) was added as secondary antibody. After 1 h, membranes were washed and protein detected using ECL prime (Amersham RPN2232) exposed to MR film (Kodak). Anti-actin HRP-conjugated antibody (clone 13E5, Cell Signaling Technologies 5125S at 1:5000) or calnexin (Abcam Ab22595 at 1:1000) was used as a loading control. For peptide mapping, 2 μl of 1 mM peptides in DMSO were boiled in 5× sample buffer and loaded on 10% Tris-Glycine gel and run using MES buffer. Cell pellets of Sf9 lysates were lysed in native RIPA (NP-40) lysis buffer and run on 10% Tris-Glycine gels.
A 96×96 array-based SPR imaging system (Carterra USA) was used for epitope mapping of anti-ApoL1 monoclonal antibodies. Briefly, purified monoclonal hybridoma antibodies were diluted at 10 μg/ml in 10 mM sodium acetate buffer pH 4.5. Using amine coupling, antibodies were directly immobilized onto a SPR sensorprism CMD 200M chip (XanTec Bioanalytics, Germany) using a Continuous Flow Microspotter (Carterra, USA) to create an array of antibodies. After coupling, the antibodies were blocked with ethanolamine, and primed with running buffer (10 mM HEPES, pH 7.4, 150 mM NaCl, 3 mM EDTA, and 0.005% Tween 20). Epitope mapping was performed by flowing 100 nM of different peptides of APOL1 across the immobilized anti-APOL1 antibodies on the biosensor chip at 25° C. in a running buffer of 10 mM HEPES, pH 7.4, 150 mM NaCl, 3 mM EDTA, and 0.005% Tween 20. After each flow through of the APOL1 peptide, the chip surface was regenerated using 10 mM glycine, pH 2.0.
(In general: A western blot detects proteins with antibodies after separation by electrophoresis.)
Take B2: the binding result is recorded as “binds”.
